Molecular target: T1, rPfSEP-1A (recombinant polypeptide encoded by nt 2,431-3,249 of PF3D7_1021800, aa 810-1083 of PfSEP-1)
T1 chain: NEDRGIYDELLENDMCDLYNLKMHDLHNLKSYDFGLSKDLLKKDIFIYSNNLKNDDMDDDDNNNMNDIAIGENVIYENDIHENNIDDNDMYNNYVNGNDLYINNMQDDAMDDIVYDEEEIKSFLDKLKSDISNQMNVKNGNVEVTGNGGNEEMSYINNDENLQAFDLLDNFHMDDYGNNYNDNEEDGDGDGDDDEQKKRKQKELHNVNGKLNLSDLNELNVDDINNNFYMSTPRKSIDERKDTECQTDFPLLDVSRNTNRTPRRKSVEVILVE

B1: rPfCDPK-5 (recombinant Plasmodium falciparum calcium-dependent protein kinase 5, PF3D7_1337800) (protein)
chain: MKETEVEDMDTNRKDGKIKKKEKIVNMKNEEVKSTTKSTLADSDEDYSIITLCTKCLSKKLEDNKNRIILDSKAFKDNRLKGRCSVSSNEDPLDNKLNLSPYFDRSQIIQEIILMNNDELSDVYEIDRYKLGKGSYGNVVKAVSKRTGQQRAIKIIEKKKIHNIERLKREILIMKQMDHPNIIKLYEVYEDNEKLYLVLELCDGGELFDKIVKYGSFSEYEAYKIMKQIFSALYYCHSKNIMHRDLKPENILYVDNTEDSPIQIIDWGFASKCMNNHNLKSVVGTPYYIAPEILRGKYDKRCDIWSSGVIMYILLCGYPPFNGKNNDEILKKVEKGEFVFDSNYWARVSDDAKDLICQCLNYNYKERIDVEQVLKHRWFKKFKSNNLIINKTLNKTLIEKFKEFHKLCKIKKLAVTCIAYQLNEKDIGKLKKTFEAFDHNGDGVLTISEIFQCLKVNDNEFDRELYFLLKQLDTDGNGLIDYTEFLAACLDHSIFQQDVICRNAFNVFDLDGDGVITKDELFKILSFSAVQVSFSKEIIENLIKEVDSNNDGFIDYDEFYKMMTGVKE
phosphorylation: rPfCDPK-5 was found to phosphorylate rPfSEP-1A
